Measured values published in US20120156198A1 (Hoffmann-La Roche, published 2012).
Changes are numbered by the printed parent chain.

T1: rhIL-1RI/hFc (R&D Systems, Cat. No. 269-1R) (human, UniProt P14778 18-332)
T1 construct: Bought; not shown: human Fc (hFc) of the commercial protein
T1 sequence (looked up): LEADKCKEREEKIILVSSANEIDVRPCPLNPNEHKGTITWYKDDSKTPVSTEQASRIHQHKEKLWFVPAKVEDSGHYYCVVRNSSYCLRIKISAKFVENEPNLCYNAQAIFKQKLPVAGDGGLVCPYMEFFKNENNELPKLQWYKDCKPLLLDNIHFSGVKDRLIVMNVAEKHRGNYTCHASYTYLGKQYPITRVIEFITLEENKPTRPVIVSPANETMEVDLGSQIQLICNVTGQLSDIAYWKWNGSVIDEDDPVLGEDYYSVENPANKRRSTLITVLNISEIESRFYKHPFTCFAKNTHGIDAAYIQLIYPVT

T2: recombinant human IL-18Rα Fc chimera (R&D Systems, Cat. No. 816-LR) (human, UniProt Q13478 19-329)
T2 construct: Bought protein; also called hIL-18Rα (hFc-chimera R&D-Systems 816-LR); recombinant human IL-18Rα-Fc fusion protein; not shown: human Fc of the commercial chimera
T2 sequence: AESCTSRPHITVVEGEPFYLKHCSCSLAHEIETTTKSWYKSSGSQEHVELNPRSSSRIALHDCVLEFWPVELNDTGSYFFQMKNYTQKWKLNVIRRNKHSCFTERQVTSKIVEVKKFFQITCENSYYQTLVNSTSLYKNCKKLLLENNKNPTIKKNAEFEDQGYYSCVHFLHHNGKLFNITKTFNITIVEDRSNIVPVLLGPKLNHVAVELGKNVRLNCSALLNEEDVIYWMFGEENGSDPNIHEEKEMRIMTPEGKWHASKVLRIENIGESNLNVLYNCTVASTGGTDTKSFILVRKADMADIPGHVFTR

B1: Mab 1G12 (antibody, V domains shown)
VH: QVQLQQPGAELVKPGASVRMSCKTSDYTFTSNWMHWVKQRPGQGLEWIGTIDPSDSYTYYNQKFKGRATLTVDTSSSTAYMQLSSLTSEDSAVYYCTTSGDYDADRYFDVWGAGTTVTVSS
VL: DIVLTQSPASLGVSLGQRATISCRASKSVSTSGDSYMHWYQQKPGQSPKLLIYLASNLESGVPARFSGSGSGTDFTLNIHPVEEEDAATYYCQQSRELPLSFGAGTKLELK
notes: Monoclonal antibody from immunized NMRI mice; detected with anti-mouse IgG1-PE / anti-mouse IgG; also called F20.1G12; monoclonal antibody 1G12
B2: Mab 2D11 (antibody, V domains shown)
VH: B1 VH with R19K, T24A, R67K, Q82H
VL: B1 VL
notes: Monoclonal antibody from immunized NMRI mice; detected with anti-mouse IgG1-PE / anti-mouse IgG; also called F20.2D11

Key:
Test in all cases: ELISA, hFc fusion protein captured on anti-human Fc
[1] = biological target: T1, rhIL-1RI/hFc (R&D Systems, Cat. No. …)
Procedure: (§1) The test was performed on 384-well microtiter plates (MaxiSorp™, Thermo Scientific Nunc, DK, Cat. No. 464718) at RT. After each incubation step, plates were washed 3 times with PBST. At the beginning, plates were coated with 0.5 μg/ml goat anti-human IgG Fc fragment (Jackson 1 mm. Res., US, Cat. No. 109-006-170) for at least 2 hours (h). Thereafter the wells were blocked with PBS supplemented with 0.2% Tween®-20 and 2% BSA (Roche Diagnostics GmbH, DE) for 1 h. 0.2 μg/ml of recombinant human IL-18Rα-Fc fusion protein (R&D Systems, UK, Cat. No. 816-LR) was captured on plate for 1 h. For testing the binding of antibodies to other proteins of the IL-1 receptor family 0.2 μg/ml of the following recombinant human proteins conjugated to human Fc (hFc) were captured: [0194] rhIL-1RI/hFc (R&D Systems, UK, Cat. No. 269-1R) [0195] rhIL-1sRII/hFc (R&D Systems, UK, Cat. No. 263-2R) [0196] rhIL-1R3/hFc (R&D Systems, UK, Cat. No. 676-CP) [0197] rhIL-2Rα/hFc (R&D Systems, UK, Cat. No. 1020-RL) [0198] rhIL-7Rα/hFc (R&D Systems, UK, Cat. No. 306-IR) [0199] rhIL-15R/hFc (R&D Systems, UK, Cat. No. 147-IR) [0200] rhST-2/hFc (R&D Systems, UK, Cat. No. 523-ST)
(§2) After washing the plate, dilutions of purified antibodies in PBS with 0.05% BSA and 0.2% Tween®-20 were incubated with the receptor proteins for 1 h. Binding of antibodies was detected with 1:2000 diluted horseradish peroxidase (HRP)-conjugates of anti-mouse IgG (GE Healthcare, UK, Cat. No. NA9310V). After 1 h the plates were washed 6 times with PBST and developed with freshly prepared BM Blue® POD substrate solution (BM Blue®: 3,3″-5,5″-Tetramethylbenzidine, Roche Diagnostics GmbH, DE, Cat. No. 11484281001) for 30 minutes at RT. Absorbance was measured at 370 nm. The values were corrected for the control without antibody.

[2] = biological target: T2, recombinant human IL-18Rα Fc chimera …
Procedure: as §1, §2

[3] = biological target: T3, rhIL-15R/hFc (R&D Systems, Cat. No. 147-IR) (human, UniProt Q13261 31-205)
T3 construct: Bought; not shown: human Fc (hFc) of the commercial protein
Procedure: as §1, §2

T3 sequence (Q13261 31-205): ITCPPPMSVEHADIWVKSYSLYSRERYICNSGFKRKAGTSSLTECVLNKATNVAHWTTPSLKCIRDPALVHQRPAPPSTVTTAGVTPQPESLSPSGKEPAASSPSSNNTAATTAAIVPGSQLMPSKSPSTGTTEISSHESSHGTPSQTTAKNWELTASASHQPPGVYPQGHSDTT

Binder | absorbance at 370 nm (corrected for the control without antibody) [1] | absorbance at 370 nm (corrected for the control without antibody) [2] | absorbance at 370 nm (corrected for the control without antibody) [3]
B1 | 0.01 | 2.43 | 0.04
B2 | 0.02 | 2.56 | 0.19
